Assay results as given in US20100075385A1 (DONALD DANFORTH PLANT SCIENCE CENTER, published 2010).

B1: Papaver somniferum (R,S)-reticuline 7-O-methyltransferase (PSOMT1), recombinant, His-tagged subunit (enzyme)
chain: MDTAEERLKGQAEIWEHMFAFVDSMALKCAVELGIPDIINSHGRPVTISEIVDSLKTNTPSSSPNIDYLTRIMRLLVHKRLFTSELHQESNQLLYNLTRSSKWLLKDSKFNLSPLVLWETNPILLKPWQYLGKCAQEKSSPFERAHGCEIWDLALADPKFNNFLNGAMQCSTTTIINEMLLEYKDGFSGIAGSLVDVGGGTGSIIAEIVKAHPHIQGINFDLPHVVATAAEFPGVKHVGGDMFVDIPEADAVIMKWILHDWSDEDCTIILKNCYRAIRKKKNGKVIIVDCVLRPDGNDLFDKMGLIFDVLMMAHTTAGKERTEAEWKILLNNAGFPRYNVIRTPAFPCIIEAFPE
notes: Full-length open reading frame expressed in Sf9 cells with an N-terminal His tag and purified on cobalt resin; GenBank AY268893 is printed for it; also called Pso7OMT; Ps7OMT; not shown: six histidine residues elongating the amino terminus (pFastBac HTa vector)
B2: Papaver somniferum (R,S)-norcoclaurine 6-O-methyltransferase (PSOMT2), recombinant, His-tagged subunit (enzyme)
chain: METVSKIDQQNQAKIWKQIYGFAESLVLKCAVQLEIAETLHNNVKPMSLSELASKLPVAQPVNEDRLFRIMRYLVHMELFKIDATTQKYSLAPPAKYLLRGWEKSMVDSILCINDKDFLAPWHHLGDGLTGNCDAFEKALGKSIWVYMSVNPEKNQLFNAAMACDTRLVTSALANECKSIFSDGISTLVDVGGGTGTAVKAISKAFPDIKCTIYDLPHVIADSPEIPNITKISGDMFKSIPSADAIFMKCILHDWNDDECIQILKRCKEALPKGGKVIIVDVVIDMDSTHPYAKIRLTLDLDMMLNTGGKERTKEEWKTLFDAAGFASHKVTQISAVQSVIEAYPY
notes: Full-length open reading frame expressed in Sf9 cells with an N-terminal His tag and purified on cobalt resin; GenBank AY268894 is printed for it; also called Pso6OMT; Ps6OMT; not shown: six histidine residues elongating the amino terminus (pFastBac HTa vector)

Biological target: the molecule itself
Experiment: gel filtration on a calibrated Sephacryl 200 column; self-association of the subunit (43 kDa by SDS-PAGE) into a homodimer
Description: Purification and Functional Characterization of Recombinant Enzymes—The PSOMT1 and PSOMT2 cDNAs were each constructed to express the recombinant proteins with six histidine residues elongating the amino terminus. The proteins were then purified from S. frugiperda Sf9 cell culture medium in one step by cobalt affinity chromatography to yield electrophoretically homogeneous proteins. PSOMT1 and PSOMT2 each have relative molecular masses of 43 kDa as determined by SDS-PAGE. This compares with the calculated molecular masses of 39,841 and 38,510 based on the translation of the nucleotide sequences. The native relative molecular masses were determined by gel filtration on a calibrated Sephacryl 200 column (Pharmacia). PSOMT1 and PSOMT2 are each homodimers with an Mr of 85 and 80 kDa, respectively. This is consistent with that observed for norcoclaurine 6-O-methyltransferases of (S)-reticuline biosynthesis in T. tuberosum (4).

Protein	binding result
B1	binds
B2	binds
